How the values were obtained:
Human ACVR2A = biological target: T1, Human ACVR2A (human, UniProt P27037 20-135, limits assumed); assay: ELISA
T1 construct: also called activin receptor, type II A
In short: (§1)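 Monoclonal antibodies were first applied to human or mouse ACVR2A, alongside biotinylated goat anti-human kappa light chain (positive control) and human Fc (negative control); binding was then determined by ELISA.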

Mouse ACVR2A = Mouse ACVR2A (mouse, UniProt P27038 20-135, limits assumed); assay: ELISA
Chain of Mouse ACVR2A (P27038 20-135 limits assumed): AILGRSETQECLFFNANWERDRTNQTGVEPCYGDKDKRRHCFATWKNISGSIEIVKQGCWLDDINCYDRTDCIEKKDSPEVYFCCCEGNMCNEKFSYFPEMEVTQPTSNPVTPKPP
In short: as §1

Goat anti-Human Kappa = biological target: T2, Goat anti-Human Kappa; assay: ELISA; positive control
T2 construct: Positive control; also called biotinylated goat anti-human kappa light chain
In short: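 ELISA measured binding of ACVR2A-specific monoclonal antibodies to human and mouse ACVR2A. Biotinylated goat anti-human kappa light chain served as positive control and human Fc as negative control.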
Further: test concentration or dose not given here.

T1 sequence (P27037 20-135 limits assumed): as the sequence (P27038 20-135 limits assumed) above, with R20K, I73V counted along it

Row | Binder | optical density (Human ACVR2A) | optical density (Mouse ACVR2A) | optical density (Goat anti-Human Kappa)
1 | 367_D09 (antibody, V domains shown, VH/VL only) VH: EVQLLESGGGLVQPGGSLRLSCAASGFTFDSYGMNWVRQAPGKGLEWVASINYNGGYKSYADSVKGRFTISRDNSKNTLYLQMNSLRAEDTAVYYCARGATWHDTHLDYWGQGTLVTVSS VL: DIQMTQSPSSLSASVGDRVTITCRASQSILTYLNWYQQKPGKAPKLLIYAATSLASGVPSRFSGSGSGTDFTLTISSLQPEDFATYYCQQSYDNPLTFGGGTKVEIK | 2.15 OD | 2.04 OD | 3.37 OD
2 | 367_E12 (antibody, V domains shown, VH/VL only) VH: EVQLLESGGGLVQPGGSLRLSCAASGFTFSSYGMHWVRQAPGKGLEWVASINYNGGYTSYADSVKGRFTISRDNSKNTLYLQMNSLRAEDTAVYYCARGATWHDTHLDYWGQGTLVTVSS VL: DIQMTQSPSSLSASVGDRVTITCRASQSILTYVNWYQQKPGKAPKLLIYAASSLQSGVPSRFSGSGSGTDFTLTISSLQPEDFATYYCQQSYNSPLTFGGGTKVEIK | 2.69 OD | 2.91 OD | 3.71 OD
3 | 368_C11 (antibody, V domains shown, VH/VL only) VH: EVQLLESGGGLVQPGGSLRLSCAASGFTFSDYSMNWVRQAPGKGLEWVSSINYNSGYKSYADSVKGRFTISRDNSKNTLYLQMNSLRAEDTAVYYCARGATWHDTHLDYWGQGTLVTVSS VL: DIQMTQSPSSLSASVGDRVTITCRASQSIISYLNWYQQKPGKAPKLLIYAATSRASGVPSRFSGSGSGTDFTLTISSLQPEDFATYYCQQSYDNPLTFGGGTKVEIK | 2.03 OD | 2.21 OD | 3.56 OD
4 | 368_B02 (antibody, V domains shown, VH/VL only) VH: EVQLLESGGGLVQPGGSLRLSCAASGFTFSSYGMNWVRQAPGKGLEWVSGINYNSGYKSYADSVKGRFTISRDNSKNTLYLQMNSLRAEDTAVYYCARGATWHDTHLDYWGQGTLVTVSS VL: not shown | 2.08 OD | 2.24 OD | 3.61 OD
5 | 367_H05 (antibody, V domains shown, VH/VL only) VH: EVQLLESGGGLVQPGGSLRLSCAASGFTFSSYGMHWVRQAPGKGLEWVASINYNSGYKSYADSVKGRFTISRDNSKNTLYLQMNSLRAEDTAVYYCARGATWHDTHLDYWGQGTLVTVSS VL: not shown | 2.44 OD | 2.7 OD | 3.59 OD
6 | 367_E07 (antibody, V domains shown, VH/VL only) VH: EVQLLESGGGLVQPGGSLRLSCAASGFTFSDYSMNWVRQAPGKGLEWVSSINYNGGYKGYADSVKGRFTISRDNSKNTLYLQMNSLRAEDTAVYYCARGATWHDTHLDYWGQGTLVTVSS VL: DIQMTQSPSSLSASVGDRVTITCRASQSILSYVNWYQQKPGKAPKLVIYAATSRASGVPSRFSGSGSGTDFTLTISSLQPEDFATYYCQQSYENPLTFGGGTKVEIK | 1.94 OD | 2.06 OD | 3.21 OD
7 | 367_H10 (antibody, V domains shown, VH/VL only) VH: EVQLLESGGGLVQPGGSLRLSCAASGFTFSSYGMNWVRQAPGKGLEWVASINYNGGYTGYADSVKGRFTISRDNSKNTLYLQMNSLRAEDTAVYYCARGATWHDTHLDYWGQGTLVTVSS VL: DIQMTQSPSSLSASVGDRVTITCRASQSILSYVNWYQQKPGKAPKLVIYAATSRASGVPSRFSGSGSGTDFTLTISSLQPEDFATYYCQQSYELPLTFGGGTKVEIK | 2.58 OD | 2.35 OD | 3.55 OD
8 | 367_F09 (antibody, V domains shown, VH/VL only) VH: EVQLLESGGGLVQPGGSLRLSCAASGFTFDSYSMHWVRQAPGKGLEWVAGINYNGGYTSYADSVKGRFTISRDNSKNTLYLQMNSLRAEDTAVYYCARGATWHDTHLDYWGQGTLVTVSS VL: DIQMTQSPSSLSASVGDRVTITCRASQSILTYLNWYQQKPGKAPKLLIYAATSLASGVPSRFSGSGSGTDFTLTISSLQPEDFATYYCQQSDSNPLTFGGGTKVEIK | 1.79 OD | 1.82 OD | 3.46 OD

Other lines, results leading:

Row | optical density (Human ACVR2A) | optical density (Mouse ACVR2A) | optical density (Goat anti-Human Kappa) | Binder
9 | 1.6 OD | 1.68 OD | 3.31 OD | 368_F06 (antibody, V domains shown, VH/VL only) VH: EVQLLESGGGLVQPGGSLRLSCAASGFTFDDYSMHWVRQAPGKGLEWVANINYNSGYTGYADSVKGRFTISRDNSKNTLYLQMNSLRAEDTAVYYCARGATWHDTHLDYWGQGTLVTVSS VL: DIQMTQSPSSLSASVGDRVTITCRASQSILSYLNWYQQKPGKAPKLVIYATTSRASGVPSRFSGSGSGTDFTLTISSLQPEDFATYYCQQSYENPLTFGGGTKVEIK
10 | 1.93 OD | 2.26 OD | 3.52 OD | 368_D02 (antibody, V domains shown, VH/VL only) VH: EVQLLESGGGLVQPGGSLRLSCAASGFTFDDYGMNWVRQAPGKGLEWVSNINYNGGYTGYADSVKGRFTISRDNSKNTLYLQMNSLRAEDTAVYYCARGATWHDTHLDYWGQGTLVTVSS VL: DIQMTQSPSSLSASVGDRVTITCRASQSISTYLNWYQQKPGKAPKLVIYAATSRHSGVPSRFSGSGSGTDFTLTISSLQPEDFATYYCQQSYDTPLTFGGGTKVEIK
11 | 2.35 OD | 2.65 OD | 3.61 OD | 368_H06 (antibody, V domains shown, VH/VL only) VH: EVQLLESGGGLVQPGGSLRLSCAASGFTFDSYGMHWVRQAPGKGLEWVANINYNGGYKSYADSVKGRFTISRDNSKNTLYLQMNSLRAEDTAVYYCARGATWHDTHLDYWGQGTLVTVSS VL: DIQMTQSPSSLSASVGDRVTITCRASQSILTYVNWYQQKPGKAPKLLIYATTSRASGVPSRFSGSGSGTDFTLTISSLQPEDFATYYCQQSYDNPLTFGGGTKVEIK
12 | 1.41 OD | 1.64 OD | 1.9 OD | 369_E05 (antibody, V domains shown, VH/VL only) VH: EVQLLESGGGLVQPGGSLRLSCAASGFTFSDYGMNWVRQAPGKGLEWVANINYNGGYKSYADSVKGRFTISRDNSKNTLYLQMNSLRAEDTAVYYCARGATWHDTHLDYWGQGTLVTVSS VL: DIQMTQSPSSLSASVGDRVTITCRASQSILTYLNWYQQKPGKAPKLLIYAATSLASGVPSRFSGSGSGTDFTLTISSLQPEDFATYYCQQSYETPLTFGGGTKVEIK
13 | 2.94 OD | 3.13 OD | 3.06 OD | 369_D08 (antibody, V domains shown, VH/VL only) VH: EVQLLESGGGLVQPGGSLRLSCAASGFTFSDYSMNWVRQAPGKGLEWVASINYNGGYKGYADSVKGRFTISRDNSKNTLYLQMNSLRAEDTAVYYCARGATWHDTHLDYWGQGTLVTVSS VL: DIQMTQSPSSLSASVGDRVTITCRASQSILTYLNWYQQKPGKAPKLLIYAATSRASGVPSRFSGSGSGTDFTLTISSLQPEDFATYYCQQSYDTPLTFGGGTKVEIK
14 | 2.64 OD | 2.77 OD | 3.29 OD | 369_A11 (antibody, V domains shown, VH/VL only) VH: EVQLLESGGGLVQPGGSLRLSCAASGFTFDSYGMNWVRQAPGKGLEWVANINYNGGYKGYADSVKGRFTISRDNSKNTLYLQMNSLRAEDTAVYYCARGATWHDTHLDYWGQGTLVTVSS VL: DIQMTQSPSSLSASVGDRVTITCRASQSIITYLNWYQQKPGKAPKLVIYAATSRHSGVPSRFSGSGSGTDFTLTISSLQPEDFATYYCQQSYESPLTFGGGTKVEIK
15 | 2.25 OD | 2.28 OD | 3.57 OD | 368_D12 (antibody, V domains shown, VH/VL only) VH: EVQLLESGGGLVQPGGSLRLSCAASGFTFSSYGMNWVRQAPGKGLEWVSSINYNGGYTSYADSVKGRFTISRDNSKNTLYLQMNSLRAEDTAVYYCARGATWHDTHLDYWGQGTLVTVSS VL: DIQMTQSPSSLSASVGDRVTITCRASQSILSYVNWYQQKPGKAPKLVIYAATSRASGVPSRFSGSGSGTDFTLTISSLQPEDFATYYCQQSYNNPLTFGGGTKVEIK
16 | 3.43 OD | 3.45 OD | 3.74 OD | 369_C12 (antibody, V domains shown, VH/VL only) VH: EVQLLESGGGLVQPGGSLRLSCAASGFTFSSYGMNWVRQAPGKGLEWVANINYNGGYKGYADSVKGRFTISRDNSKNTLYLQMNSLRAEDTAVYYCARGATWHDTHLDYWGQGTLVTVSS VL: DIQMTQSPSSLSASVGDRVTITCRASQSILTYLNWYQQKPGKAPKLLIYAATSRHSGVPSRFSGSGSGTDFTLTISSLQPEDFATYYCQQSYDTPLTFGGGTKVEIK
17 | 2.73 OD | 2.75 OD | 3.39 OD | 368_G03 (antibody, V domains shown, VH/VL only) VH: EVQLLESGGGLVQPGGSLRLSCAASGFTFSSYSMNWVRQAPGKGLEWVSGINYNSGYTSYADSVKGRFTISRDNSKNTLYLQMNSLRAEDTAVYYCARGATWHDTALDYWGQGTLVTVSS VL: DIQMTQSPSSLSASVGDRVTITCRASQSILSYLNWYQQKPGKAPKLVIYAATSRASGVPSRFSGSGSGTDFTLTISSLQPEDFATYYCQQSYDTPLTFGGGTKVEIK
18 | 2.06 OD | 2.28 OD | 3.45 OD | 368_G10 (antibody, V domains shown, VH/VL only) VH: EVQLLESGGGLVQPGGSLRLSCAASGFTFSSYSMHWVRQAPGKGLEWVSSINYNGGYTSYADSVKGRFTISRDNSKNTLYLQMNSLRAEDTAVYYCARGATWHDTHLDYWGQGTLVTVSS VL: DIQMTQSPSSLSASVGDRVTITCRASQSIVSYVNWYQQKPGKAPKLVIYAATSRASGVPSRFSGSGSGTDFTLTISSLQPEDFATYYCQQSYDTPLTFGGGTKVEIK
19 | 1.95 OD | 2.13 OD | 3.51 OD | 368_H11 (antibody, V domains shown, VH/VL only) VH: EVQLLESGGGLVQPGGSLRLSCAASGFTFDSYGMHWVRQAPGKGLEWVASINYNGGYTSYADSVKGRFTISRDNSKNTLYLQMNSLRAEDTAVYYCARGATWHDTHLDYWGQGTLVTVSS VL: DIQMTQSPSSLSASVGDRVTITCRASQSILSYLNWYQQKPGKAPKLLIYAATSRASGVPSRFSGSGSGTDFTLTISSLQPEDFATYYCQQSDDTPLTFGGGTKVEIK

Source: US20210380703A1 (RIGEL PHARMACEUTICALS, published 2021)
